Measurements: PMC10786891, “Massively parallel profiling of RNA-targeting CRISPR-Cas13d”
Changes are numbered by the printed parent chain. Names and notes keep the numbering of the source.

T1: EsCas13d, nuclease-dead (Eubacterium siraeum, UniProt B0MS50, R295A;H300A;R849A;H854A)
T1 sequence: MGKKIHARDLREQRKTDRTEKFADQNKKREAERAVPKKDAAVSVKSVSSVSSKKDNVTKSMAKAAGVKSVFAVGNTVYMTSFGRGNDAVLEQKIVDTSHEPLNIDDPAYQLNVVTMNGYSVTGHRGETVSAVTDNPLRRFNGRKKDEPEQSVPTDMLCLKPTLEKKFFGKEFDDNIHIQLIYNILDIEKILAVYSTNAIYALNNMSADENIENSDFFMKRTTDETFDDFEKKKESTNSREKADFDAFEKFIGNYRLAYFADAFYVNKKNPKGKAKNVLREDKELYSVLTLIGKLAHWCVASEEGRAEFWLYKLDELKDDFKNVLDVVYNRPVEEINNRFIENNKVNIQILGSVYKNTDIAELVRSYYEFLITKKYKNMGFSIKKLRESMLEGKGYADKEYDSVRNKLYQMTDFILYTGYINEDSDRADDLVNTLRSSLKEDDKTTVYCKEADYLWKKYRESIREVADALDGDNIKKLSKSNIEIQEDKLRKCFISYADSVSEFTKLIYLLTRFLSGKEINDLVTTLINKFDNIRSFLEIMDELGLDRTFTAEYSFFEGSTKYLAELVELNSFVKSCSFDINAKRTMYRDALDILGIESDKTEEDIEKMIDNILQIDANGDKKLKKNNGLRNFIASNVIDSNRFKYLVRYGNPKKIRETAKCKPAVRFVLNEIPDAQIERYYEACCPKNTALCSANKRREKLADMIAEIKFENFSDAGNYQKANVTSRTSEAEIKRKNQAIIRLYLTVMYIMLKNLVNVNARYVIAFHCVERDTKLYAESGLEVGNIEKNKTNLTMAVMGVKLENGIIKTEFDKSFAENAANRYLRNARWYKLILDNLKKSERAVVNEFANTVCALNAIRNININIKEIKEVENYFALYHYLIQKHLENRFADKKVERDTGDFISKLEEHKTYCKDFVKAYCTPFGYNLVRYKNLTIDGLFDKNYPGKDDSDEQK

B1: target 1 A20U,C21U (mixed)
RNA 1: CACCCGUGCAAAAAUGCAGGGGUCUAAAACUGAGCGGAUAACCUCUCUAUGG
RNA 2: GGGAAUGGAUCCACAUCUACGAAUUCGUACUUUAGAGAGGUUAUCCGCUCACCGAGAUCGGAAGAGCACACGU
B2: target 1 A1U,G15U (mixed)
RNA 1: B1 RNA 1
RNA 2: B1 RNA 2 with U31C, U32A, G37U, A51U
B3: target 1 insU 3' of 18,insC 3' of 8 (mixed)
RNA 1: B1 RNA 1
RNA 2: GGGAAUGGAUCCACAUCUACGAAUUCGUACCAUAUGAGAGGUUAUCCCGCUCACCGAGAUCGGAAGAGCACACGU
B4: target 1 U11A,C21U (mixed)
RNA 1: B1 RNA 1
RNA 2: B1 RNA 2 with U32A, U41A
B5: target 1 A9G,A16C (mixed)
RNA 1: B1 RNA 1
RNA 2: B1 RNA 2 with U31C, U32A, A36C, A43G
B6: target 1 U3C,G5U (mixed)
RNA 1: B1 RNA 1
RNA 2: B1 RNA 2 with U31C, U32A, G47U, U49C
B7: target 1 U8C,A14G (mixed)
RNA 1: B1 RNA 1
RNA 2: B1 RNA 2 with U31C, U32A, A38G, U44C
B8: target 1 del13,del17 (mixed)
RNA 1: B1 RNA 1
RNA 2: GGGAAUGGAUCCACAUCUACGAAUUCGUACCAUAAGAGUUAUCCGCUCACCGAGAUCGGAAGAGCACACGU
B9: target 1 insU 3' of 7,insG 3' of 4 (mixed)
RNA 1: B1 RNA 1
RNA 2: GGGAAUGGAUCCACAUCUACGAAUUCGUACCAUAGAGAGGUUAUCUCGCGUCACCGAGAUCGGAAGAGCACACGU
B10: target 1 insA 3' of 17,insA 3' of 11 (mixed)
RNA 1: B1 RNA 1
RNA 2: B3 RNA 2 with U35G, G36A, U43A, A44U, U45A, C46U
B11: target 1 insU 3' of 20,insU 3' of 9 (mixed)
RNA 1: B1 RNA 1
RNA 2: B3 RNA 2 with A34U, U35A, C46U
B12: target 1 complement block 5-13 (mixed)
RNA 1: B1 RNA 1
RNA 2: GGGAAUGGAUCCACAUCUACGAAUUCGUACCAUAGAGACCAAUAGGCCUCACCGAGAUCGGAAGAGCACACGU
B13: target 1 insG 3' of 18,insG 3' of 16 (mixed)
RNA 1: B1 RNA 1
RNA 2: B3 RNA 2 with U35G, A39G, G40A, U42G, A44U, U45A, C46U
B14: target 1 A9U,G12U (mixed)
RNA 1: B1 RNA 1
RNA 2: B1 RNA 2 with U31C, U32A, G40U, A43U
B15: target 1 insU 3' of 12,insC 3' of 10 (mixed)
RNA 1: B1 RNA 1
RNA 2: B9 RNA 2 with A43U, U44C, C45A, G48C, C49G, G50C
B16: target 1 insC 3' of 15,insU 3' of 9 (mixed)
RNA 1: B1 RNA 1
RNA 2: B3 RNA 2 with U35G, G36A, A37G, G38C, C46U
B17: target 1 C4U,A9U (mixed)
RNA 1: B1 RNA 1
RNA 2: B1 RNA 2 with U31C, U32A, A43U, C48U
B18: target 1 C7A,U11C (mixed)
RNA 1: B1 RNA 1
RNA 2: B1 RNA 2 with U31C, U32A, U41C, C45A
B19: target 1 insA 3' of 10,insG 3' of 2 (mixed)
RNA 1: B1 RNA 1
RNA 2: B9 RNA 2 with U44A, C45U, U46C, G50U, U51C, C52G
B20: target 1 G5C,A9G (mixed)
RNA 1: B1 RNA 1
RNA 2: B1 RNA 2 with U31C, U32A, A43G, G47C
B21: target 1 insG 3' of 10,insU 3' of 6 (mixed)
RNA 1: B1 RNA 1
RNA 2: B9 RNA 2 with A43G, U44A, C45U, U46C, G48U, C49G, G50C
B22: target 1 insU 3' of 7,insC 3' of 1 (mixed)
RNA 1: B1 RNA 1
RNA 2: B9 RNA 2 with G50U, U51C, C52A, A53C
B23: target 1 insG 3' of 19,insA 3' of 10 (mixed)
RNA 1: B1 RNA 1
RNA 2: B3 RNA 2 with A34G, U35A, U45A, C46U
B24: target 1 insG 3' of 7,insG 3' of 7 (mixed)
RNA 1: B1 RNA 1
RNA 2: B9 RNA 2 with U46G, C47G, G48C, C49G, G50C
B25: target 1 insU 3' of 21,insC 3' of 20 (mixed)
RNA 1: B1 RNA 1
RNA 2: GGGAAUGGAUCCACAUCUACGAAUUCGUACCUACUAGAGAGGUUAUCCGCUCACCGAGAUCGGAAGAGCACACGU
B26: target 1 insU 3' of 18,insG 3' of 14 (mixed)
RNA 1: B1 RNA 1
RNA 2: B3 RNA 2 with U42G, A44U, U45A, C46U
B27: target 1 C7G,A20U (mixed)
RNA 1: B1 RNA 1
RNA 2: B1 RNA 2 with U31C, C45G
B28: target 1 G13U,C22A (mixed)
RNA 1: B1 RNA 1
RNA 2: B1 RNA 2 with C30A, U31C, U32A, G39U
B29: target 1 insU 3' of 13,insC 3' of 13 (mixed)
RNA 1: B1 RNA 1
RNA 2: B25 RNA 2 with U32A, A33U, C34A, U35G, A40U, G41C
B30: target 1 insA 3' of 21,insG 3' of 2 (mixed)
RNA 1: B1 RNA 1
RNA 2: B3 RNA 2 with U33A, A34U, U35A, C48G, G49C, C50U, U51C, C52G
B31: target 1 insC 3' of 19,insG 3' of 8 (mixed)
RNA 1: B1 RNA 1
RNA 2: B3 RNA 2 with A34C, U35A, C46G
B32: target 1 A9C,G12A (mixed)
RNA 1: B1 RNA 1
RNA 2: B1 RNA 2 with U31C, U32A, G40A, A43C
B33: target 1 U11G,C21A (mixed)
RNA 1: B1 RNA 1
RNA 2: B1 RNA 2 with U31A, U32A, U41G
B34: target 1 insU 3' of 7,insU 3' of 5 (mixed)
RNA 1: B1 RNA 1
RNA 2: B9 RNA 2 with C49U, G50C

The binders below were run against T1, EsCas13d, nuclease-dead (assay: crRNA (strand 1, pre-loaded); Mg2+; 40 mM Tris-HCl pH 7.5, 150 mM NaCl, 6 mM MgCl2, 1 mM DTT, 0.1% Tween-20, 0.2 mg/ml BSA; 25 C; 10 min per concentration, then washed). Settings: tags: His6-TwinStrep-SUMO cleaved; N-terminal SNAP kept (SNAP-Surface 488); label: 3' end held by stalled T7 RNA polymerase.

B1 and B2 are within 1.5-fold of each other in Kd: 19.5 ± 1.2 nM for the first, 25.9 ± 3 nM for the second.

Going from B3 to B4, the Kd falls from 53 ± 4 nM to 8.3 ± 0.5 nM (6.4-fold). The second binds more tightly here.

B5 and B6 are within error of each other in Kd: 36.4 ± 1.8 nM for the first, 42 ± 9 nM for the second.

First: B7
Second: B8
The Kd of the first is 2.1-fold lower: 25.7 ± 2 nM for the first, 55 ± 20 nM for the second.

First: B9
Second: B10
The Kd of the first is 3.3-fold lower: 7.41 ± 0.26 nM for the first, 24.5 ± 1.7 nM for the second. The first binds more tightly here.

Going from B11 to B12, the Kd rises from 20.5 ± 1.2 nM to ~80 nM (3.9-fold).

Compared with B13, B14 is 5-fold lower in Kd: 55 ± 9 nM for the first, 10.9 ± 1.1 nM for the second.

Going from B15 to B16, the Kd falls from 45 ± 6 nM to 14.4 ± 0.8 nM (3.1-fold). The second binds more tightly here.

Compared with B17, B18 is 6-fold lower in Kd: 50 ± 16 nM for the first, 8.4 ± 0.4 nM for the second.

B19 and B20 are within 1.5-fold of each other in Kd: 12.4 ± 0.7 nM for the first, 8.9 ± 0.5 nM for the second.

First: B21
Second: B22
The Kd of the first is 2.6-fold higher: 36.8 ± 3.1 nM for the first, 13.9 ± 0.6 nM for the second. The second binds more tightly here.

Going from B23 to B24, the Kd falls from 59 ± 5 nM to 9.8 ± 0.5 nM (6-fold).

Going from B25 to B26, the Kd rises from 13.5 ± 1 nM to 46 ± 3 nM (3.4-fold).

B27 and B28 are within error of each other in Kd: 47 ± 6 nM for the first, 63 ± 27 nM for the second.

Going from B29 to B30, the Kd rises from 8.6 ± 0.5 nM to 16 ± 0.9 nM (1.9-fold).

First: B31
Second: B32
The Kd of the first is 2.7-fold higher: 45 ± 7 nM for the first, 16.6 ± 1.9 nM for the second. The second binds more tightly here.

First: B33
Second: B34
The Kd of the first is 4.4-fold higher: 64 ± 12 nM for the first, 14.5 ± 0.5 nM for the second. The second binds more tightly here.
